According to the RNAGym collection of RNA variant scans (doi:10.7554/elife.80360):

B1: HDV Ribozyme (parent)
chain: GGCCGGCAUGGUCCCAGCCUCCUCGCUGGCGCCGGCUGGGCAACAUUCCGAGGGGACCGUCCCCUCGGUAAUGGCGAAUGGGACCCA

Variants of: B1
Test: self-cleavage, relative activity (ratio to wild type); higher = more cleavage; co-transcriptional
With G11U C30G the self-cleavage was 0.0767.
G11U C32G showed a self-cleavage of 0.0767.
With G11U C33A the self-cleavage was 0.0604.
Work on G11U C41A yielded a self-cleavage of 0.201.
Variant G11U C41U has a self-cleavage of 0.358.
G11U C48A showed a self-cleavage of 0.423.
With G11U C57G the self-cleavage was 0.358.
G11U C58G gave a self-cleavage of 0.44.
In the case of G11U C64G, the self-cleavage is reported as 0.465.
G11U C75U showed a self-cleavage of 0.0422.
G11U C84G showed a self-cleavage of 0.489.
In the case of G11U C85U, the self-cleavage is reported as 0.767.
G11U C86A showed a self-cleavage of 0.489.
Variant G11U C86G has a self-cleavage of 0.199.
G11U C86U gave a self-cleavage of 0.415.
G11U G25U showed a self-cleavage of 0.0623.
In the case of G11U G28A, the self-cleavage is reported as 0.0219.
G11U G28U showed a self-cleavage of 0.0396.
G11U G31A gave a self-cleavage of 0.179.
G11U G31U gave a self-cleavage of 0.129.
G11U G34A showed a self-cleavage of 0.21.
Variant G11U G34C has a self-cleavage of 0.166.
With G11U G35U the self-cleavage was 0.115.
For G11U G38A, the self-cleavage was 0.0135.
For G11U G39C, the self-cleavage was 0.
Work on G11U G40C yielded a self-cleavage of 0.0181.
Variant G11U G40U has a self-cleavage of 0.18.
Work on G11U G50C yielded a self-cleavage of 0.359.
G11U G67A gave a self-cleavage of 0.0875.
For G11U G73A, the self-cleavage was 0.138.
For G11U G73C, the self-cleavage was 0.126.
For G11U G76U, the self-cleavage was 0.596.
With G11U G80A the self-cleavage was 0.136.
G11U G81U gave a self-cleavage of 0.138.
Variant G11U U12C has a self-cleavage of 0.125.
Variant G11U U12G has a self-cleavage of 0.199.
With G11U U20G the self-cleavage was 0.0791.
Variant G11U U27G has a self-cleavage of 0.353.
Work on G11U U46C yielded a self-cleavage of 0.135.
G11U U47A gave a self-cleavage of 0.397.
Variant G11U U65A has a self-cleavage of 0.321.
In the case of G11U U72C, the self-cleavage is reported as 0.231.
In the case of U12A, the self-cleavage is reported as 0.309.
Variant U12A A16C has a self-cleavage of 0.499.
With U12A A42C the self-cleavage was 0.147.
U12A A42G showed a self-cleavage of 0.256.
U12A A42U showed a self-cleavage of 0.119.
With U12A A43U the self-cleavage was 0.147.
For U12A A51G, the self-cleavage was 0.196.
U12A A70C gave a self-cleavage of 0.332.
Work on U12A A83G yielded a self-cleavage of 0.302.
Variant U12A C15U has a self-cleavage of 0.138.
U12A C18G showed a self-cleavage of 0.0405.
Variant U12A C19U has a self-cleavage of 0.0831.
In the case of U12A C21A, the self-cleavage is reported as 0.0678.
In the case of U12A C24A, the self-cleavage is reported as 0.104.
In the case of U12A C32A, the self-cleavage is reported as 0.131.
U12A C32G gave a self-cleavage of 0.225.
Variant U12A C36U has a self-cleavage of 0.0678.
In the case of U12A C41U, the self-cleavage is reported as 0.147.
U12A C44A gave a self-cleavage of 0.
With U12A C44U the self-cleavage was 0.
In the case of U12A C48G, the self-cleavage is reported as 0.415.
With U12A C49A the self-cleavage was 0.128.
U12A C57A gave a self-cleavage of 0.256.
Work on U12A C57U yielded a self-cleavage of 0.246.
Work on U12A C58A yielded a self-cleavage of 0.312.
U12A C58G showed a self-cleavage of 0.383.
Variant U12A C62A has a self-cleavage of 0.458.
U12A C62G gave a self-cleavage of 0.133.
In the case of U12A C63A, the self-cleavage is reported as 0.519.
Work on U12A C63U yielded a self-cleavage of 0.453.
U12A C64A gave a self-cleavage of 0.26.
Variant U12A C64U has a self-cleavage of 0.178.
Work on U12A C66G yielded a self-cleavage of 0.375.
Variant U12A C86U has a self-cleavage of 0.178.
U12A G17A gave a self-cleavage of 0.19.
In the case of U12A G29C, the self-cleavage is reported as 0.0386.
Variant U12A G34A has a self-cleavage of 0.0378.
In the case of U12A G38A, the self-cleavage is reported as 0.
Variant U12A G38C has a self-cleavage of 0.0489.
Variant U12A G39A has a self-cleavage of 0.225.
U12A G52A showed a self-cleavage of 0.364.
